In this test the target is acid alpha-glucosidase (GAA phosphodiester) (Homo sapiens, UniProt P10253). Kind of test: SPR. For orientation: Surface plasmon resonance follows binding to a sensor surface in real time, without labels.

B1: CI-MPR domains 1-5 1-726 (protein)
chain: MGAAAGRSPHLGPAPARRPQRSLLLLQLLLLVAAPGSTQAQAAPFPELCSYTWEAVDTKNNVLYKINICGSVDIVQCGPSSAVCMHDLKTRTYHSVGDSVLRSATRSLLEFNTTVSCDQQGTNHRVQSSIAFLCGKTLGTPEFVTATECVHYFEWRTTAACKKDIFKANKEVPCYVFDEELRKHDLNPLIKLSGAYLVDDSDPDTSLFINVCRDIDTLRDPGSQLRACPPGTAACLVRGHQAFDVGQPRDGLKLVRKDRLVLSYVREEAGKLDFCDGHSPAVTITFVCPSERREGTIPKLTAKSNCRYEIEWITEYACHRDYLESKTCSLSGEQQDVSIDLTPLAQSGGSSYISDGKEYLFYLNVCGETEIQFCNKKQAAVCQVKKSDTSQVKAAGRYHNQTLRYSDGDLTLIYFGGDECSSGFQRMSVINFECNKTAGNDGKGTPVFTGEVDCTYFFTWDTEYACVKEKEDLLCGATDGKKRYDLSALVRHAEPEQNWEAVDGSQTETEKKHFFINICHRVLQEGKARGCPEDAAVCAVDKNGSKNLGKFISSPMKEKGNIQLSYSDGDDCGHGKKIKTNITLVCKPGDLESAPVLRTSGEGGCFYEFEWHTAAACVLSKTEGENCTVFDSQAGFSFDLSPLTKKNGAYKVETKKYDFYINVCGPVSVSPCQPDSGACQVAKSDEKTWNLGLSNAKLSYYDGMIQLNYRGGTPYNNERHTPRATL
modifications: GAA N-glycans modified to contain only phosphodiesters
Turning to B1, the Kd (usually the concentration at which binding is half-saturated) was roughly 60 nM.
